# Assay results as given in the supplement of paper PMC10126150.
# ± gives the standard deviation of the averaged measurements.
# System: ATP
# Assay: switch fluorescence ratio, 500 uM ATP over buffer (Cy3 cluster intensity, sum of 5 cycles each) (fold (ratio)); higher = stronger signal-on switching upon ATP binding; sequences stand for … in TCGTCGGCAGCGTCAGATGTGTATAAGAGACAGTTTTTTTTTTTTTTTTTTTTTTTTT…TC
# Conditions: aptamer strand: ATP DNA aptamer (quencher-CACCTGGGGGAGTATTGCGGAGGAAGG + anchor), 100 nM annealed; ATP concentration: 500 uM
# In short: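 Imaging in selection buffer was followed by imaging after 15 min with 500 uM ATP at 22 °C, for Cy3-labelled switching-strand clusters annealed to 100 nM quencher-labelled ATP aptamer on a modified Illumina MiSeq flow-cell. Five of these buffer/ATP cycles ran, separated by NaOH stripping and re-annealing. The fluorescence ratio per cluster is summed target-cycle over summed buffer-cycle Cy3 intensity, averaged per switch-domain sequence; clusters outside 100-1000 RFU were removed.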
# 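Further: ATP exposure 15 min at 22 °C before imaging.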
row,Sequence,switch fluorescence ratio
1,TCCGATGCGT,2.97 ± 2.8
2,TCCGATGGGG,1.084 ± 0.0093
3,TCCGATGTTT,1.76 ± 0.27
4,TCCGATTACG,1.22 ± 0.037
5,TCCGATTTGT,1.02 ± 0.08
6,TCCGCACAGA,3.41 ± 0.89
7,TCCGGAGGCA,2.2 ± 0.059
8,TCCGGCTGGT,0.976 ± 0.024
9,TCCGGGGGGC,1.15 ± 0.18
10,TCCGGGGTGC,2.36 ± 1
11,TCCGGGTCTG,1.03 ± 0.072
12,TCCGGTACTG,1.16 ± 0.074
13,TCCGTCTGTT,1.003 ± 0.0052
14,TCCGTGCAAG,3.03 ± 0.48
15,TCCGTGCGGT,1.04 ± 0.066
16,TCCGTGGGTG,1.38 ± 0.21
17,TCCTAGCACT,1.65 ± 0.12
18,TCCTAGGCGC,1.126 ± 0.0049
19,TCCTAGTCAT,1.05 ± 0.036
20,TCCTATGGGG,0.9886 ± 0.0033
21,TCCTCACTGT,1.18 ± 0.034
22,TCCTCGGGGG,0.989 ± 0.027
23,TCCTGAGTAA,1.55 ± 0.25

row,Sequence,switch fluorescence ratio
1,TCCTGATTGC,1.03 ± 0.038
2,TCCTGGGGAT,0.99 ± 0.039
3,TCCTGTATGT,0.9981 ± 0.0018
4,TCCTGTTCTG,1.02 ± 0.041
5,TCCTTTAACG,1.031 ± 0.0014
6,TCCTTTAAGA,0.998 ± 0.036
7,TCCTTTTTTG,1 ± 0.016
8,TCGAAAAGGA,1.02 ± 0.026
9,TCGAAAATGT,1.01 ± 0.081
10,TCGAAAGGCA,1.04 ± 0.031
11,TCGAAATTTT,1 ± 0.022
12,TCGAACCGAG,1.2 ± 0.024
13,TCGAACGTTG,1.034 ± 0.0026
14,TCGAACTAGG,1 ± 0.018
15,TCGAACTGCT,1.02 ± 0.02
16,TCGAAGGGT,1 ± 0.037
17,TCGAAGGTTT,1.01 ± 0.029
18,TCGAATTTTT,1.02 ± 0.07
19,TCGACCCAGC,1.104 ± 0.0032
20,TCGACTATTA,1.05 ± 0.019
21,TCGAGACTAG,1.02 ± 0.029
22,TCGAGCGAAC,2.1 ± 0.53
23,TCGAGCTAAT,1.41 ± 0.11

row,Sequence,switch fluorescence ratio
1,TCGAGGGGAC,1.67 ± 1.4
2,TCGAGGGGAG,0.978 ± 0.016
3,TCGAGGGGAT,1.01 ± 0.027
4,TCGAGGGGCG,1.06 ± 0.019
5,TCGAGGGGGG,1.05 ± 0.096
6,TCGAGGGGTA,1 ± 0.07
7,TCGAGTAAAA,0.9902 ± 0.0039
8,TCGAGTATGT,0.983 ± 0.012
9,TCGAGTGCGT,0.978 ± 0.014
10,TCGATAGCGA,1.19 ± 0.028
11,TCGATCATAA,0.9901 ± 0.0015
12,TCGATGCAAG,1.23 ± 0.015
13,TCGATGCAGC,1.45 ± 0.31
14,TCGATGGGGA,1.02 ± 0.015
15,TCGATTCAGC,0.979 ± 0.025
16,TCGCAGGATA,1.08 ± 0.012
17,TCGCAGGCCT,1.033 ± 0.003
18,TCGCAGTGGG,1.12 ± 0.034
19,TCGCCGCTAT,2.61 ± 0.34
20,TCGCCTGGGG,1.1 ± 0.0046
21,TCGCGAGTAA,1.04 ± 0.076
22,TCGCGCGGAG,1.04 ± 0.024
23,TCGCGGAGGG,0.981 ± 0.019

row,Sequence,switch fluorescence ratio
1,TCGCGGAGTT,1 ± 0.011
2,TCGCGGCGCG,0.972 ± 0.011
3,TCGCTCATGG,1.03 ± 0.015
4,TCGCTGAGG,0.9921 ± 0.00077
5,TCGGAAATTT,1.002 ± 0.0079
6,TCGGAACTTG,1.01 ± 0.07
7,TCGGAAGGGG,1.17 ± 0.3
8,TCGGAATAGA,1.22 ± 0.26
9,TCGGAGAAGG,1.02 ± 0.064
10,TCGGAGCCAC,3.16 ± 3
11,TCGGAGCGGG,1.102 ± 0.0032
12,TCGGAGCTTA,2.977 ± 0.018
13,TCGGAGCTTC,4.06 ± 1.4
14,TCGGAGGGGG,1.05 ± 0.2
15,TCGGAGTACT,1.16 ± 0.03
16,TCGGATAAGA,0.995 ± 0.048
17,TCGGATAGGG,1.04 ± 0.071
18,TCGGCATGAT,0.998 ± 0.011
19,TCGGCCGCTG,1.05 ± 0.064
20,TCGGCCGGGA,1.05 ± 0.011
21,TCGGCCGTCC,1.056 ± 0.009
22,TCGGCGAATG,1.02 ± 0.024
23,TCGGCGTGGG,1.01 ± 0.025

row,Sequence,switch fluorescence ratio
1,TCGGGAACAG,1.02 ± 0.035
2,TCGGGAGGTT,1.01 ± 0.031
3,TCGGGATACT,1.86 ± 0.32
4,TCGGGATAGG,1.05 ± 0.018
5,TCGGGCGTAT,1 ± 0.056
6,TCGGGGAATG,1.002 ± 0.0032
7,TCGGGGAGGA,0.956 ± 0.026
8,TCGGGGAGTT,0.982 ± 0.021
9,TCGGGGATAG,0.979 ± 0.047
10,TCGGGGCAG,0.976 ± 0.033
11,TCGGGGCCAT,1.02 ± 0.062
12,TCGGGGCGGA,0.994 ± 0.038
13,TCGGGGGCAC,1.45 ± 0.71
14,TCGGGGGGAT,1.21 ± 0.36
15,TCGGGGGGTA,0.985 ± 0.021
16,TCGGGGTAAT,1.03 ± 0.019
17,TCGGGGTCAG,0.999 ± 0.02
18,TCGGGTATTT,0.998 ± 0.021
19,TCGGGTCCGT,0.982 ± 0.027
20,TCGGGTTCTC,0.967 ± 0.0091
21,TCGGGTTCTT,1.02 ± 0.027
22,TCGGGTTTTA,1.03 ± 0.039
23,TCGGTAAATG,1.04 ± 0.018

row,Sequence,switch fluorescence ratio
1,TCGGTCAGTA,1.002 ± 0.0036
2,TCGGTCATGG,0.993 ± 0.023
3,TCGGTGACAG,1.01 ± 0.018
4,TCGGTGCTGG,0.977 ± 0.018
5,TCGGTGGAGA,1.01 ± 0.024
6,TCGGTGGAGC,1.02 ± 0.13
7,TCGGTGTCGG,0.98 ± 0.037
8,TCGGTGTTCA,1 ± 0.011
9,TCGGTTAGAT,0.981 ± 0.057
10,TCGGTTCTAC,0.9985 ± 0.0099
11,TCGGTTGAAG,0.988 ± 0.017
12,TCGGTTGTGA,0.999 ± 0.011
13,TCGGTTTTTA,1 ± 0.043
14,TCGTAAAGAG,1.022 ± 0.0069
15,TCGTAAAGGG,1.01 ± 0.022
16,TCGTAAAGTT,0.955 ± 0.02
17,TCGTAACAGG,1.01 ± 0.034
18,TCGTAAGGAA,1.01 ± 0.02
19,TCGTAATAGG,1.118 ± 0.011
20,TCGTAATCGC,1.4113 ± 0.0014
21,TCGTAATGTG,1.03 ± 0.033
22,TCGTACTTTT,0.989 ± 0.05
23,TCGTAGCTGT,1.18 ± 0.052

row,Sequence,switch fluorescence ratio
1,TCGTAGGAGC,1.03 ± 0.02
2,TCGTAGGGTT,1.01 ± 0.04
3,TCGTAGGTGG,1.02 ± 0.063
4,TCGTATTTGG,0.993 ± 0.032
5,TCGTCCTTTT,0.976 ± 0.03
6,TCGTCGTAGC,1.05 ± 0.072
7,TCGTCTGTGG,0.974 ± 0.029
8,TCGTGAGGTG,1.02 ± 0.068
9,TCGTGAGTGG,0.975 ± 0.021
10,TCGTGCGGGT,1.001 ± 0.0081
11,TCGTGCTTGG,1 ± 0.029
12,TCGTGGCGCT,0.995 ± 0.048
13,TCGTGGGACT,1.07 ± 0.12
14,TCGTGGGGGC,1.07 ± 0.14
15,TCGTGGTGTT,1.03 ± 0.021
16,TCGTGTGGAG,1.01 ± 0.033
17,TCGTGTTAGG,1.02 ± 0.022
18,TCGTTAAATT,0.988 ± 0.035
19,TCGTTAGAAG,0.9966 ± 0.0052
